In PMC12402178:

How the values were obtained:
[1] = molecular target: microtubules polymerised from porcine brain tubulin (GMPCPP-stabilised seeds, dynamic GDP lattice, or taxol-stabilised) (porcine) (UniProt P02550); assay: FRAP (TIRF microscopy); anillin-GFP bleached on single GMPCPP microtubules; single exponential fit, median of fits
[2] = molecular target: microtubules polymerised from porcine brain tubulin (GMPCPP-stabilised seeds, dynamic GDP lattice, or taxol-stabilised) (porcine) (UniProt P02550); assay: FRAP (TIRF microscopy); anillin-GFP bleached on single GDP (dynamic) microtubules; single exponential fit, median of fits; 26 C

Chain of Anillin-GFP (full-length human anillin, isoform 2, 1087 amino acids) (Q9NQW6 other isoform, or with tags, fused parts or gaps): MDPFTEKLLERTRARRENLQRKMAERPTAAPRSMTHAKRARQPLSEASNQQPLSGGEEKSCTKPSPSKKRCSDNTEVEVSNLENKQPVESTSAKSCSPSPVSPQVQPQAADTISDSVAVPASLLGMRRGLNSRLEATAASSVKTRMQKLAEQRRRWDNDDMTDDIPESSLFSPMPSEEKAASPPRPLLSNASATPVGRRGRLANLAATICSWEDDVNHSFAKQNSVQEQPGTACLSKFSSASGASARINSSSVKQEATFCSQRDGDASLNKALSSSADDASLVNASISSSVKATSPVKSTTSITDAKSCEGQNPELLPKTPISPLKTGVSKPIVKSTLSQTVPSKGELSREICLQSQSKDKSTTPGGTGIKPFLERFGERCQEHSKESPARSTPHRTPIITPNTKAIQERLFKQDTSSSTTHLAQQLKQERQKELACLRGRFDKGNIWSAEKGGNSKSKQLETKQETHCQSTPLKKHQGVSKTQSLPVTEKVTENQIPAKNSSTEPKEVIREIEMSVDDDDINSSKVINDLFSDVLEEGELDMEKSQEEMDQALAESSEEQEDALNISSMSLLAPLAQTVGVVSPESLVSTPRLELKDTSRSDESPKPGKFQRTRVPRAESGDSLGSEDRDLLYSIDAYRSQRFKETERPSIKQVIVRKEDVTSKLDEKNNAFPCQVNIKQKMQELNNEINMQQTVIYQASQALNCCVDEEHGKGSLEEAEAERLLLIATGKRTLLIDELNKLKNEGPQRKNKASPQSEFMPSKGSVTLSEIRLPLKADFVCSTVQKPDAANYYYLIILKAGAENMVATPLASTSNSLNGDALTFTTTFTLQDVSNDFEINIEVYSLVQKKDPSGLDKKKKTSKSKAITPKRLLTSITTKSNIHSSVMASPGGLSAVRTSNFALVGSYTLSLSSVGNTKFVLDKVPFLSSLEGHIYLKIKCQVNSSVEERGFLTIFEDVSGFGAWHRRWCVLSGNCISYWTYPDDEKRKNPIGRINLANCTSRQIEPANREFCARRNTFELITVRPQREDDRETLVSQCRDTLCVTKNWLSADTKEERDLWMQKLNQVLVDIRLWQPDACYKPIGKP

## Anillin-GFP (full-length human anillin, isoform 2, 1087 amino acids) (from UniProt Q9NQW6-2 1-1087) (natural protein)
[1]
  koff: 0.26 s⁻¹
[2]
  koff: 1.07 s⁻¹
